{
  "source": "the supplement of paper PMC10567573",
  "parents": {"B1": {"name": "TMEM106C (parent)", "chain": "SEQLVNFTGKAEMGGPFSYVYFFC"}},
  "data": [
    {"variants_of": "B1", "test": "protein stability index of a GFP-peptide fusion (GPS, HEK-293T) (PSI 1-6); higher = more stable", "settings": "c terminus: a fixed tail appended", "values": [
      {"variant": "P16R", "protein stability index": 3.05},
      {"variant": "P16I", "protein stability index": 2.04},
      {"variant": "P16A", "protein stability index": 2.25},
      {"variant": "P16N", "protein stability index": 3.26},
      {"variant": "P16F", "protein stability index": 3.14},
      {"variant": "P16L", "protein stability index": 3.79},
      {"variant": "P16W", "protein stability index": 2.94},
      {"variant": "P16S", "protein stability index": 2.1},
      {"variant": "P16M", "protein stability index": 3.03},
      {"variant": "P16Y", "protein stability index": 3.76},
      {"variant": "P16D", "protein stability index": 3.16},
      {"variant": "P16C", "protein stability index": 3.95},
      {"variant": "P16G", "protein stability index": 2.05},
      {"variant": "P16H", "protein stability index": 2.25},
      {"variant": "P16V", "protein stability index": 2.47},
      {"variant": "P16K", "protein stability index": 2.98},
      {"variant": "P16E", "protein stability index": 2.88},
      {"variant": "P16Q", "protein stability index": 2.58},
      {"variant": "P16T", "protein stability index": 2.4},
      {"variant": "F17R", "protein stability index": 3.07},
      {"variant": "F17M", "protein stability index": 3.54},
      {"variant": "F17H", "protein stability index": 2.22},
      {"variant": "F17Q", "protein stability index": 2.77},
      {"variant": "F17V", "protein stability index": 2.46},
      {"variant": "F17E", "protein stability index": 1.97},
      {"variant": "F17K", "protein stability index": 2.42},
      {"variant": "F17N", "protein stability index": 2.93},
      {"variant": "F17L", "protein stability index": 3.08},
      {"variant": "F17W", "protein stability index": 3.31},
      {"variant": "F17T", "protein stability index": 2.41},
      {"variant": "F17A", "protein stability index": 2.55},
      {"variant": "F17I", "protein stability index": 2.47},
      {"variant": "F17C", "protein stability index": 2.79},
      {"variant": "F17P", "protein stability index": 1.84},
      {"variant": "F17S", "protein stability index": 2.5},
      {"variant": "F17Y", "protein stability index": 2.21},
      {"variant": "F17G", "protein stability index": 2.28},
      {"variant": "F17D", "protein stability index": 1.95},
      {"variant": "V20A", "protein stability index": 2.9},
      {"variant": "V20T", "protein stability index": 2.77},
      {"variant": "V20G", "protein stability index": 2.35},
      {"variant": "V20H", "protein stability index": 2.53},
      {"variant": "V20F", "protein stability index": 2.17},
      {"variant": "V20S", "protein stability index": 2.56},
      {"variant": "V20P", "protein stability index": 1.98},
      {"variant": "V20D", "protein stability index": 1.76},
      {"variant": "V20E", "protein stability index": 2.13},
      {"variant": "V20W", "protein stability index": 1.79},
      {"variant": "V20K", "protein stability index": 1.55},
      {"variant": "V20Q", "protein stability index": 2.65},
      {"variant": "V20L", "protein stability index": 2.07},
      {"variant": "V20N", "protein stability index": 2.69},
      {"variant": "V20C", "protein stability index": 3.09},
      {"variant": "V20Y", "protein stability index": 2.53},
      {"variant": "V20I", "protein stability index": 2.7},
      {"variant": "V20R", "protein stability index": 1.68},
      {"variant": "V20M", "protein stability index": 2.65},
      {"variant": "C24M", "protein stability index": 2.82},
      {"variant": "C24A", "protein stability index": 3.11},
      {"variant": "C24N", "protein stability index": 1.89},
      {"variant": "C24R", "protein stability index": 2.09},
      {"variant": "C24P", "protein stability index": 1.73},
      {"variant": "C24I", "protein stability index": 3.26},
      {"variant": "C24K", "protein stability index": 2.07},
      {"variant": "C24F", "protein stability index": 3.13},
      {"variant": "C24D", "protein stability index": 2.36},
      {"variant": "C24H", "protein stability index": 3.25},
      {"variant": "C24E", "protein stability index": 2.29},
      {"variant": "C24Q", "protein stability index": 1.54},
      {"variant": "C24G", "protein stability index": 2.53},
      {"variant": "F22D", "protein stability index": 2.33},
      {"variant": "F22E", "protein stability index": 1.88},
      {"variant": "F22C", "protein stability index": 2.58},
      {"variant": "F22M", "protein stability index": 3.04},
      {"variant": "F22S", "protein stability index": 2.12},
      {"variant": "F22I", "protein stability index": 1.96},
      {"variant": "F22A", "protein stability index": 2.62},
      {"variant": "F22N", "protein stability index": 1.79},
      {"variant": "F22W", "protein stability index": 2.21},
      {"variant": "F22P", "protein stability index": 2.06},
      {"variant": "F22Y", "protein stability index": 2.78},
      {"variant": "F22H", "protein stability index": 3.04},
      {"variant": "F22Q", "protein stability index": 2.07},
      {"variant": "F22T", "protein stability index": 3.71},
      {"variant": "F22K", "protein stability index": 1.84},
      {"variant": "F22V", "protein stability index": 3.27},
      {"variant": "F22R", "protein stability index": 2.28},
      {"variant": "F22G", "protein stability index": 2.86},
      {"variant": "Y21P", "protein stability index": 1.49},
      {"variant": "Y21L", "protein stability index": 3.93},
      {"variant": "Y21M", "protein stability index": 3.64},
      {"variant": "Y21D", "protein stability index": 1.89},
      {"variant": "Y21N", "protein stability index": 2.82},
      {"variant": "Y21C", "protein stability index": 2.42},
      {"variant": "Y21S", "protein stability index": 2.44},
      {"variant": "Y21Q", "protein stability index": 2.15},
      {"variant": "Y21T", "protein stability index": 3.31},
      {"variant": "Y21K", "protein stability index": 2.06},
      {"variant": "Y21G", "protein stability index": 1.84},
      {"variant": "Y21E", "protein stability index": 1.42},
      {"variant": "Y21V", "protein stability index": 3.6},
      {"variant": "Y21H", "protein stability index": 2.26},
      {"variant": "Y21A", "protein stability index": 3.06},
      {"variant": "Y21R", "protein stability index": 1.49},
      {"variant": "Y21F", "protein stability index": 3.1},
      {"variant": "G15R", "protein stability index": 2.79},
      {"variant": "G15T", "protein stability index": 2.73},
      {"variant": "G15P", "protein stability index": 4.29},
      {"variant": "G15W", "protein stability index": 2.36},
      {"variant": "G15V", "protein stability index": 2.76},
      {"variant": "G15Q", "protein stability index": 2.59},
      {"variant": "G15Y", "protein stability index": 2.89},
      {"variant": "G15S", "protein stability index": 2.85},
      {"variant": "S18C", "protein stability index": 2.74},
      {"variant": "S18P", "protein stability index": 2.26},
      {"variant": "S18L", "protein stability index": 3.3},
      {"variant": "S18G", "protein stability index": 1.88},
      {"variant": "S18N", "protein stability index": 3},
      {"variant": "S18E", "protein stability index": 2.23},
      {"variant": "S18Y", "protein stability index": 2.04},
      {"variant": "S18H", "protein stability index": 2.35},
      {"variant": "S18W", "protein stability index": 1.72},
      {"variant": "S18T", "protein stability index": 2.31},
      {"variant": "S18V", "protein stability index": 4.08},
      {"variant": "S18M", "protein stability index": 4.17},
      {"variant": "S18F", "protein stability index": 3.04},
      {"variant": "S18R", "protein stability index": 3.37},
      {"variant": "S18K", "protein stability index": 2.25},
      {"variant": "S18Q", "protein stability index": 2.45},
      {"variant": "S18I", "protein stability index": 3.11},
      {"variant": "S18A", "protein stability index": 2.29},
      {"variant": "F23E", "protein stability index": 2.15},
      {"variant": "F23R", "protein stability index": 4.48},
      {"variant": "F23K", "protein stability index": 1.79},
      {"variant": "F23W", "protein stability index": 3.85},
      {"variant": "F23I", "protein stability index": 2.42},
      {"variant": "F23L", "protein stability index": 2.08},
      {"variant": "F23T", "protein stability index": 2.05},
      {"variant": "F23Q", "protein stability index": 2.9},
      {"variant": "F23H", "protein stability index": 2.28},
      {"variant": "F23A", "protein stability index": 2.45},
      {"variant": "F23G", "protein stability index": 3.03},
      {"variant": "F23S", "protein stability index": 3.45},
      {"variant": "F23C", "protein stability index": 2.54},
      {"variant": "F23V", "protein stability index": 3.22},
      {"variant": "F23Y", "protein stability index": 3.3},
      {"variant": "F23N", "protein stability index": 1.35},
      {"variant": "F23P", "protein stability index": 1.51},
      {"variant": "F23D", "protein stability index": 1.56},
      {"variant": "Y19N", "protein stability index": 1.97},
      {"variant": "Y19I", "protein stability index": 2.51},
      {"variant": "Y19W", "protein stability index": 2.46},
      {"variant": "Y19H", "protein stability index": 3.66},
      {"variant": "Y19L", "protein stability index": 2.89},
      {"variant": "Y19Q", "protein stability index": 2.12},
      {"variant": "Y19F", "protein stability index": 2.11},
      {"variant": "Y19E", "protein stability index": 1.93},
      {"variant": "Y19G", "protein stability index": 2.97},
      {"variant": "Y19K", "protein stability index": 3.22},
      {"variant": "Y19D", "protein stability index": 1.91},
      {"variant": "Y19A", "protein stability index": 2},
      {"variant": "Y19M", "protein stability index": 3.35},
      {"variant": "Y19V", "protein stability index": 3.9},
      {"variant": "Y19T", "protein stability index": 2.33},
      {"variant": "Y19R", "protein stability index": 2.1},
      {"variant": "Y19P", "protein stability index": 1.74},
      {"variant": "Y19C", "protein stability index": 2.1}
    ]}
  ]
}
